Assay results as given in IntAct's records for PubMed 9647694.

B1: ATP-sensitive inward rectifier potassium channel 10 (Mus musculus), Q9JM63 (parent)
chain: MTSVAKVYYSQTTQTESRPLVAPGIRRRRVLTKDGRSNVRMEHIADKRFLYLKDLWTTFIDMQWRYKLLLFSATFAGTWFLFGVVWYLVAVAHGDLLELGPPANHTPCVVQVHTLTGAFLFSLESQTTIGYGFRYISEECPLAIVLLIAQLVLTTILEIFITGTFLAKIARPKKRAETIRFSQHAVVASHNGKPCLMIRVANMRKSLLIGCQVTGKLLQTHQTKEGENIRLNQVNVTFQVDTASDSPFLILPLTFYHVVDETSPLKDLPLRSGEGDFELVLILSGTVESTSATCQVRTSYLPEEILWGYEFTPAISLSASGKYIADFSLFDQVVKVASPSGLRDSTVRYGDPEKLKLEESLREQAEKEGSALSVRISNV

Variants of: B1
Conditions: with inadl_mouse Patj

effect of a mutation on the interaction | Variant
disrupting interaction | V379A
disrupting interaction | S377G
